Assay [1] concerns the target T1, GST-His-Sfmbt-SAM_(1137-1220) (Drosophila, UniProt Q9VK33 1137-1220).
T1 sequence (looked up): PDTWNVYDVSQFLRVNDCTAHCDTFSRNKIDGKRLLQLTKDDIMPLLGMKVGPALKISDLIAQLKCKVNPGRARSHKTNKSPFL
Kind of assay: pull-down.

For a further assay, the target named is T2, Sfmbt-SAM_(1137-1220) (Drosophila, UniProt Q9VK33 1137-1220).
T2 sequence (looked up): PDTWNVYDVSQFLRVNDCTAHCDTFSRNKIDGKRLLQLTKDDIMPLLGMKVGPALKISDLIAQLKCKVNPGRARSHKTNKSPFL
The assay can be described thus: SEC. (In general: SEC sorts molecules by how far they enter the pores of the column.)

B1: His-Scm-SAM_(803-877)^L855E/L859E (domain or fragment, Drosophila, UniProt Q9VHA0 803-877, looked up)
chain: PIDWTIEEVIQYIESNDNSLAVHGDLFRKHEIDGKALLLLNSEMMMKYMGLKEGPAEKICNLVNKVNGRRNNLAL
Take B1: the binding result in assay [1] was “binds”.

B2: Scm-SAM_(803-877)^L855E/L859E (coexpressed with Sfmbt-SAM) (domain or fragment, Drosophila, UniProt Q9VHA0 803-877, looked up)
chain: PIDWTIEEVIQYIESNDNSLAVHGDLFRKHEIDGKALLLLNSEMMMKYMGLKEGPAEKICNLVNKVNGRRNNLAL
B2: the binding result with Sfmbt-SAM_(1137-1220) is given as “binds”.

For the origin of these results see paper PMC4863741 (Genes & Development, 2016).
